The values that follow come from the supplement of paper PMC5998384.

In data set [1] the test system is HeLa Kyoto. Description: solubility in G1/S (NP-40 vs SDS abundance) (log2 ratio); higher = more soluble. Particulars: cell cycle stage: G1/S.
The test system of data set [2] is HeLa Kyoto. Description: melting temperature (median over replicates), in situ; higher = more thermally stable.
In data set [3] the test system is HeLa Kyoto. The experiment in a line: thermal stability score vs G1/S (z-score of summed log2 fold changes over temperatures); higher = more thermally stable than in G1/S.
Data set [4] has as its system HeLa Kyoto. The experiment in a line: solubility change mitosis vs G1/S (difference of NP-40 vs SDS log2 ratios) (log2 ratio difference); higher = more soluble in mitosis.
Where [5] appears, read: cell cycle stage: early G1 (4.5 h after nocodazole release).
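Wherever melting temperature (median over replicates), in situ is given: HeLa Kyoto cells synchronized by double thymidine or nocodazole block, proteins quantified by TMT10plex mass spectrometry, three independent biological replicates.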
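Wherever solubility change mitosis vs G1/S (difference of NP-40 vs SDS log2 ratios) is given: synchronized HeLa Kyoto cells (double thymidine block for G1/S, nocodazole release for mitosis), protein amounts in NP-40 versus SDS lysates quantified by mass spectrometry, three biological replicates.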
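Wherever solubility in G1/S (NP-40 vs SDS abundance) is given: HeLa Kyoto cells arrested at G1/S by double thymidine block, proteins quantified by TMT10plex mass spectrometry in mild NP-40 versus SDS extracts, three biological replicates.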
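Wherever thermal stability score vs G1/S (z-score of summed log2 fold changes over temperatures) is given: synchronized HeLa Kyoto cells, proteins quantified by TMT10plex mass spectrometry, three biological replicates, mitosis taken 0.5 h after nocodazole release, G1/S directly after double thymidine block.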

On to “MSLLGDPLQALPPSAAPTGPLLAPPAGATLNRLREPLLRRLSELLDQAPEGRGWRRLAELAGSRGRLRLSCLDLEQCSLKVLEPEGSPSLCLLKLMGEKGCTVTELSDFLQAMEHTEVLQLLSPPGIKITVNPESKAVLAGQFVKLCCRATGHPFVQYQWFKMNKEIPNGNTSELIFNAVHVKDAGFYVCRVNNNFTFEFSQWSQLDVCDIPESFQRSVDGVSESKLQICVEPTSQKLMPGSTLVLQCVAVGSPIPHYQWFKNELPLTHETKKLYMVPYVDLEHQGTYWCHVYNDRDSQDSKKVEIIIGRTDEAVECTEDELNNLGHPDNKEQTTDQPLAKDKVALLIGNMNYREHPKLKAPLVDVYELTNLLRQLDFKVVSLLDLTEYEMRNAVDEFLLLLDKGVYGLLYYAGHGYENFGNSFMVPVDAPNPYRSENCLCVQNILKLMQEKETGLNVFLLDMCRKRNDYDDTIPILDALKVTANIVFGYATCQGAEAFEIQHSGLANGIFMKFLKDRLLEDKKITVLLDEVAEDMGKCHLTKGKQALEIRSSLSEKRALTDPIQGTEYSAESLVRNLQWAKAHELPESMCLKFDCGVQIQLGFAAEFSNVMIIYTSIVYKPPEIIMCDAYVTDFPLDLDIDPKDANKGTPEETGSYLVSKDLPKHCLYTRLSSLQKLKEHLVFTVCLSYQYSGLEDTVEDKQEVNVGKPLIAKLDMHRGLGRKTCFQTCLMSNGPYQSSAATSGGAGHYHSLQDPFHGVYHSHPGNPSNVTPADSCHCSRTPDAFISSFAHHASCHFSRSNVPVETTDEIPFSFSDRLRISEK [MALT1]”, for which the “solubility in G1/S (log2)” value in data set [1] was -0.00137. For the same substance, the melting temperature in data set [2] (cell cycle stage: G1/S) stood at 49 °C; in data set [2] (cell cycle stage: mitosis), 49.4 °C. The figures for the thermal stability score in data set [3] (setting [5]) and in data set [3] (cell cycle stage: mitosis) were 0.111 and 0.543, respectively. Besides, the “solubility change mitosis (log2)” value in data set [4] is -0.158.
Consider “MWLPLVLLLAVLLLAVLCKVYLGLFSGSSPNPFSEDVKRPPAPLVTDKEARKKVLKQAFSANQVPEKLDVVVIGSGFGGLAAAAILAKAGKRVLVLEQHTKAGGCCHTFGKNGLEFDTGIHYIGRMEEGSIGRFILDQITEGQLDWAPLSSPFDIMVLEGPNGRKEYPMYSGEKAYIQGLKEKFPQEEAIIDKYIKLVKVVSSGAPHAILLKFLPLPVVQLLDRCGLLTRFSPFLQASTQSLAEVLQQLGASSELQAVLSYIFPTYGVTPNHSAFSMHALLVNHYMKGGFYPRGGSSEIAFHTIPVIQRAGGAVLTKATVQSVLLDSAGKACGVSVKKGHELVNIYCPIVVSNAGLFNTYEHLLPGNARCLPGVKQQLGTVRPGLGMTSVFICLRGTKEDLHLPSTNYYVYYDTDMDQAMERYVSMPREEAAEHIPLLFFAFPSAKDPTWEDRFPGRSTMIMLIPTAYEWFEEWQAELKGKRGSDYETFKNSFVEASMSVVLKLFPQLEGKVESVTAGSPLTNQFYLAAPRGACYGADHDLGRLHPCVMASLRAQSPIPNLYLTGQDIFTCGLVGALQGALLCSSAILKRNLYSDLKNLDSRIRAQKKKN [RETSAT]”, for which the “solubility in G1/S (log2)” value in data set [1] was determined as 0.0503. The melting temperature stood at 52.1 °C in data set [2] (cell cycle stage: G1/S) and 52.2 °C in data set [2] (cell cycle stage: mitosis). For the same substance, the thermal stability score came to 2.89 in data set [3] (setting [5]) and 3.75 in data set [3] (cell cycle stage: mitosis). The “solubility change mitosis (log2)” value in data set [4] is -0.0973.
With “MSYPGYPPTGYPPFPGYPPAGQESSFPPSGQYPYPSGFPPMGGGAYPQVPSSGYPGAGGYPAPGGYPAPGGYPGAPQPGGAPSYPGVPPGQGFGVPPGGAGFSGYPQPPSQSYGGGPAQVPLPGGFPGGQMPSQYPGGQPTYPSQINTDSFSSYPVFSPVSLDYSSEPATVTQVTQGTIRPAANFDAIRDAEILRKAMKGFGTDEQAIVDVVANRSNDQRQKIKAAFKTSYGKDLIKDLKSELSGNMEELILALFMPPTYYDAWSLRKAMQGAGTQERVLIEILCTRTNQEIREIVRCYQSEFGRDLEKDIRSDTSGHFERLLVSMCQGNRDENQSINHQMAQEDAQRLYQAGEGRLGTDESCFNMILATRSFPQLRATMEAYSRMANRDLLSSVSREFSGYVESGLKTILQCALNRPAFFAERLYYAMKGAGTDDSTLVRIVVTRSEIDLVQIKQMFAQMYQKTLGTMIAGDTSGDYRRLLLAIVGQ [ANXA7]”, the “solubility in G1/S (log2)” value in data set [1] turned out to be 0.437. For the same substance, the melting temperature came to 50.7 °C in data set [2] (cell cycle stage: G1/S) and 51.3 °C in data set [2] (cell cycle stage: mitosis). For the same substance, the thermal stability score in data set [3] (setting [5]) was found to be 2.36; in data set [3] (cell cycle stage: mitosis), 2. Also, in data set [4], the “solubility change mitosis (log2)” value is 0.0486.
As for CARKD, the “solubility in G1/S (log2)” value in data set [1] was found to be 0.243. Also, the values for the melting temperature in data set [2] (cell cycle stage: G1/S) and in data set [2] (cell cycle stage: mitosis) were 54.8 °C and 56.1 °C, respectively. The thermal stability score in data set [3] (setting [5]) is -0.234; in data set [3] (cell cycle stage: mitosis) it was -1.33. The “solubility change mitosis (log2)” value in data set [4] was -0.211.
